Molecular target: spike proteins of SARS-CoV-2 variants (614G, Alpha, Beta, Gamma, Delta, Kappa, Lambda, Mu, BA.1, BA.)
Experiment: cell-based or functional assay

B1: 3-1 antibody (antibody, V domains shown)
VH: EVQLVQSGAEVKKPGESLKISCKGSGYIFTNYWIGWVRQMPGKGLEWMGIINPRDSDTRYSPSFQGQVTISTDKSINTAYLQWSSLKASDTAMYYCARQQGGFGDLGAYNWFDPWGQGTLVTVSS
VL: not shown
IC50, pseudovirus neutralization: < 0.25 µg/mL

From patent US20260139035A1
